The text below walks through data of paper PMC8459022 (Frontiers in Plant Science, 2021).

In experiment [1] the target is T1, recombinant human PD-1 His tag protein (Homo sapiens, UniProt Q15116). As to the kind of experiment: cell-based or functional assay.
T1 sequence (Q15116 25-170): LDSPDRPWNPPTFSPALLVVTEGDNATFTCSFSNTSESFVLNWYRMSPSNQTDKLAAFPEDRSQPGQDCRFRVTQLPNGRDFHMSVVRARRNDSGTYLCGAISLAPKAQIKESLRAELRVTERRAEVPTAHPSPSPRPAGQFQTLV
Experiment [2] concerns the target T1, recombinant human PD-1 His tag protein. As to the kind of experiment: SPR; Biacore T200, antibody (3 ug/ml) captured on protein G sensor chip in HBS-EP; single-cycle kinetics with human PD-1 His tag at 10, 20, 40, 80 and 160 nM, 30 ul/min, 60 s association, 120 s dissociation; Langmuir 1:1 model. The note with it: both partners purified. (In general: Surface plasmon resonance follows binding to a sensor surface in real time, without labels.)

Experiment [3] has as its target T2, recombinant human PD-1 His tag protein (Homo sapiens, UniProt Q15116).
T2 construct: programmed cell death protein 1 (PD-1), human; recombinant, R&D Systems 8986-PD; also called programmed cell death protein 1; source: bought: R&D Systems
As to the kind of experiment: SPR; Biacore T200; antibodies (3 ug/ml in HBS-EP) captured on a protein G sensor chip; human PD-1 His tag injected at 10, 20, 40, 80 and 160 nM, single-cycle kinetics, 30 ul/min, 60 s association, 120 s dissociation; Langmuir 1:1 model. Conditions: both partners purified.
T2 sequence (Q15116 25-170): as above

B1: plant-produced Pembrolizumab (antibody, V domains shown)
VH: QVQLVQSGVEVKKPGASVKVSCKASGYTFTNYYMYWVRQAPGQGLEWMGGINPSNGGTNFNEKFKNRVTLTTDSSTTTAYMELKSLQFDDTAVYYCARRDYRFDMGFDYWGQGTTVTVSS
VL: EIVLTQSPATLSLSPGERATLSCRASKGVSTSGYSYLHWYQQKPGQAPRLLIYLASYLESGVPARFSGSGSGTDFTLTISSLEPEDFAVYYCQHSRDLPLTFGGGTKVEIK
notes: Pembrolizumab heavy chain; DrugBank DB09037; Pembrolizumab light chain (kappa); IgG4 kappa antibody; assembled as full IgG (150 kDa) by non-reducing SDS-PAGE and SEC; also called Pem WT; anti-human PD-1 monoclonal antibody produced in Nicotiana benthamiana; copies: 2 + 2
What is called Kd is the free concentration of one partner at which half of the binding sites on the other are occupied at equilibrium, for simple one-to-one binding. B1: the “PD-1/PD-L1 blockade bioassay (luciferase reporter; Jurkat/PD-1 effector cells with CHO-K1/PD-L1 cells, 6 h); EC50 of blocking PD-1 with PD-L1” value in experiment [1] came out at 147 ng/mL. Besides, the Kd in experiment [2] was found to be 8.51 nM.

B2: Keytruda (mammalian cell-produced commercial Pembrolizumab) (antibody, V domains shown)
VH: B1 VH
VL: B1 VL
notes: Pembrolizumab heavy chain; as the heavy chain of m1 without the C-terminal SEKDEL; DrugBank DB09037; Pembrolizumab light chain; as the light chain of m1; Commercial drug product used as the positive control and comparator; source: bought: commercial Keytruda, mammalian cell-produced
Take B2: the “PD-1/PD-L1 blockade bioassay (luciferase reporter; Jurkat/PD-1 effector cells with CHO-K1/PD-L1 cells, 6 h); EC50 of blocking PD-1 with PD-L1” value in experiment [1] was 147 ng/mL. The equilibrium dissociation constant (Kd) in experiment [2] was 8.26 nM.

B3: commercial Pembrolizumab (Keytruda) (antibody, V domains shown)
VH: B1 VH
VL: B1 VL
notes: Pembrolizumab heavy chain; as the heavy chain of Wm1 without the C-terminal SEKDEL; Pembrolizumab light chain; as the light chain of Wm1; The commercial drug; also called mammalian cell-produced Pembrolizumab; source: bought: commercial Pembrolizumab (Keytruda), mammalian cell-produced
Broadly, the koff is the first-order rate constant of dissociation. The term kon denotes the rate constant with which the complex forms. As to B3, in experiment [3], the koff is 0.00339 s⁻¹ and the kon was determined as 410000 M⁻¹ s⁻¹.
